For assay [1], the target named is hyperstable HIV-1 cores (affinity-purified), as used for TRIM5α binding and imaging (HIV-1 (NL4-3)). Put plainly: co-sedimentation. Particulars: scale: CA per TRIM5α_(AGMpyg).
The target in assay [2] is hyperstable HIV-1 CA_(A14C,E45C) cores (HIV-1 (NL4-3)). Put plainly: cross-linking.
Assay [3] deals with truncated TRIM5α_(AGMpyg) that lacked the SPRY domain (African green monkey (Chlorocebus pygerythrus)). In words: SEC; final gel filtration step, HiLoad 16/600 Superdex 200 in 20 mM CHES, 100 nM ZnCl2, 1 mM TCEP, pH 10.0, 4°C; oligomer judged from retention time.

In assay [1], “African green monkey TRIM5α (Chlorocebus pygerythrus) (from UniProt Q5C8U4 1-515) (natural protein)” showed a stoichiometry N of 7.

In assay [2], “hyperstable HIV-1 CA_(A14C,E45C) cores (complex)” displayed a stoichiometry N of 6.

In assay [3], “truncated TRIM5α_(AGMpyg) that lacked the SPRY domain (domain or fragment)” yielded a stoichiometry N of 2.

The values are drawn from publication PMC4936896.
